Source: the FLAb antibody collection (doi:10.7554/elife.23156)

B1: scFv; the commonest letter at each place (parent)
chain 1: EVKLDETGGGLVQPGRPMKLSCVASGFTFSDYWMNWVRQSPEKGLEWVAQIRNKPYNYETYYSDSVKGRFTISRDDSKSSVYLQMNNLRVEDMGIYYCTGSYYGMDYWGQGTSVTVS
chain 2: DVVMTQTPLSLPVSLGDQASISCRSSQSLVHSNGNTYLRWYLQKPGQSPKVLIYKVSNRFSGVPDRFSGSGSGTDFTLKISRVEAEDLGVYFCSQSTHVPWTFGGGTKLEIK

Legend:
fluorescein = variants of: B1; test: Kd (Tite-Seq); settings: with fluorescein; format: scFv 4-4-20, heavy + light
[1] = variants of: B1; test: yeast surface expression (ratio to wild type); higher = more expressed; settings: format: scFv 4-4-20, heavy + light

For chain 1 EVKLDETGGGLVQPGRPMKLSCVASGFTFSDYWMNWVRQSPEKGLEWVAQIRNKPYNYETYYSDSVKGRFTISRDDSKSSVYLQMNNLRVEDMGIYYCTMEYYGMDYVGQGTSVTVS chain 2 DVVMTQTPLSLPVSLGDQASISCRSSQSLVHSNGNTYLRWYLQKPGQSPKVLIYKVSNRFSGVPDRFSGSGSGTDFTLKISRVEAEDLGVYFCSQSTHVPWTFGGGTKLEIK [chain 1 G100M S101E W108V], the Kd (fluorescein) was ≥ 10 µM and the yeast surface expression [1] was 0.515.

With chain 1 EVKLDETGGGLVQPGRPMKLSCVASGFTFSDYWMNWVRQSPEKGLEWVAQIRNKPYNYETYYSDSVKGRFTISRDDSKSSVYLQMNNLRVEDMGIYYCTGSYYGTDYWLQGTSVTVS chain 2 DVVMTQTPLSLPVSLGDQASISCRSSQSLVHSNGNTYLRWYLQKPGQSPKVLIYKVSNRFSGVPDRFSGSGSGTDFTLKISRVEAEDLGVYFCSQSTHVPWTFGGGTKLEIK [chain 1 M105T G109L] the Kd (fluorescein) was ≥ 10 µM and the yeast surface expression [1] was 0.188.

For chain 1 EVKLDETGGGLVQPGRPMKLSCVASGFLFSDYWMDNVRQSPEKGLEWVAQIRNKPYNYETYYSDSVKGRFTISRDDSKSSVYLQMNNLRVEDMGIYYCTGSYYGMDYWGQGTSVTVS chain 2 DVVMTQTPLSLPVSLGDQASISCRSSQSLVHSNGNTYLRWYLQKPGQSPKVLIYKVSNRFSGVPDRFSGSGSGTDFTLKISRVEAEDLGVYFCSQSTHVPWTFGGGTKLEIK [chain 1 T28L N35D W36N], the Kd (fluorescein) was ≥ 10 µM and the yeast surface expression [1] was 0.674.

In the case of chain 1 EVKLDETGGGLVQPGRPMKLSCVASGFTVSDYWMDWVRQSPEKGLEWVAQIRNKPYNYETYYSDSVKGRFTISRDDSKSSVYLQMNNLRVEDMGIYYCTGSYYGMDYWGQGTSVTVS chain 2 DVVMTQTPLSLPVSLGDQASISCRSSQSLVHSNGNTYLRWYLQKPGQSPKVLIYKVSNRFSGVPDRFSGSGSGTDFTLKISRVEAEDLGVYFCSQSTHVPWTFGGGTKLEIK [chain 1 F29V N35D], the Kd (fluorescein) is reported as ≥ 10 µM and the yeast surface expression [1] is reported as 0.862.

With chain 1 EVKLDETGGGLVQPGRPMKLSCVASGFTFSDYWMNWVRQSPEKGLEWVAQIRNKPYNYETYYSDSVKGRFTISRDDSKSSVYLQMNNLRVEDMGIYYCTGSYWGMDYWSQGTSVTVS chain 2 DVVMTQTPLSLPVSLGDQASISCRSSQSLVHSNGNTYLRWYLQKPGQSPKVLIYKVSNRFSGVPDRFSGSGSGTDFTLKISRVEAEDLGVYFCSQSTHVPWTFGGGTKLEIK [chain 1 Y103W G109S] the Kd (fluorescein) was ≥ 10 µM and the yeast surface expression [1] was 0.653.

chain 1 EVKLDETGGGLVQPGRPMKLSCVASGFTFSDYWMNWVRQSPEKGLEWVAQIRNKPYNYETYYSDSVKGRFTISRDDSKSSVYLQMNNLRVEDMGIYYCTGSYYGMDYWSQGTSVTVS chain 2 DVVMTQTPLSLPVSLGDQASISCRSSQSLVHSNGNTYLRWYLQKPGQSPKVLIYKVSNRFSGVPDRFSGSGSGTDFTLKISRVEAEDLGVYFCSQSTHVPWTFGGGTKLEIK [chain 1 G109S] gave a Kd (fluorescein) of 0.00361 µM and a yeast surface expression [1] of 0.826.

With chain 1 EVKLDETGGGLVQPGRPMKLSCVASGFTFSRKWMNWYRQSPEKGLEWVAQIRNKPYNYETYYSDSVKGRFTISRDDSKSSVYLQMNNLRVEDMGIYYCTGSYYGMDYWGQGTSVTVS chain 2 DVVMTQTPLSLPVSLGDQASISCRSSQSLVHSNGNTYLRWYLQKPGQSPKVLIYKVSNRFSGVPDRFSGSGSGTDFTLKISRVEAEDLGVYFCSQSTHVPWTFGGGTKLEIK [chain 1 D31R Y32K V37Y] the Kd (fluorescein) was ≥ 10 µM and the yeast surface expression [1] was 1.3.

With chain 1 EVKLDETGGGLVQPGRPMKLSCVASGFTFSDYWMNWVRQSPEKGLEWVAQIRNKPYNYETYYSDSVKGRFTISRDDSKSSVYLQMNNLRVEDMGIYYCTGSVYGMIYWGQGTSVTVS chain 2 DVVMTQTPLSLPVSLGDQASISCRSSQSLVHSNGNTYLRWYLQKPGQSPKVLIYKVSNRFSGVPDRFSGSGSGTDFTLKISRVEAEDLGVYFCSQSTHVPWTFGGGTKLEIK [chain 1 Y102V D106I] the Kd (fluorescein) was ≥ 10 µM and the yeast surface expression [1] was 0.421.

chain 1 EVKLDETGGGLVQPGRPMKLSCVASGFTFSDYWMNWVRQSPEKGLEWVAQIRNKPYNYETYYSDSVKGRFTISRDDSKSSVYLQMNNLRVEDMGIYYCTCAYYGMDYWGQGTSVTVS chain 2 DVVMTQTPLSLPVSLGDQASISCRSSQSLVHSNGNTYLRWYLQKPGQSPKVLIYKVSNRFSGVPDRFSGSGSGTDFTLKISRVEAEDLGVYFCSQSTHVPWTFGGGTKLEIK [chain 1 G100C S101A] gave a Kd (fluorescein) of 0.00606 µM and a yeast surface expression [1] of 0.711.

Variant chain 1 EVKLDETGGGLVQPGRPMKLSCVASGFTFSDYWMNWVRQSPEKGLEWVAQIRNKPYNYETYYSDSVKGRFTISRDDSKSSVYLQMNNLRVEDMGIYYCTGSYAGMDYWGQGTSVTVS chain 2 DVVMTQTPLSLPVSLGDQASISCRSSQSLVHSNGNTYLRWYLQKPGQSPKVLIYKVSNRFSGVPDRFSGSGSGTDFTLKISRVEAEDLGVYFCSQSTHVPWTFGGGTKLEIK [chain 1 Y103A] has a Kd (fluorescein) of 0.015 µM and a yeast surface expression [1] of 0.932.

For chain 1 EVKLDETGGGLVQPGRPMKLSCVASGFTGSEYWMNWVRQSPEKGLEWVAQIRNKPYNYETYYSDSVKGRFTISRDDSKSSVYLQMNNLRVEDMGIYYCTGSYYGMDYWGQGTSVTVS chain 2 DVVMTQTPLSLPVSLGDQASISCRSSQSLVHSNGNTYLRWYLQKPGQSPKVLIYKVSNRFSGVPDRFSGSGSGTDFTLKISRVEAEDLGVYFCSQSTHVPWTFGGGTKLEIK [chain 1 F29G D31E], the Kd (fluorescein) was ≥ 10 µM and the yeast surface expression [1] was 0.955.

With chain 1 EVKLDETGGGLVQPGRPMKLSCVASGFTFSDYWMNWVRQSPEKGLEWVAQIRNKPYNYETYYSDSVKGRFTISRDDSKSSVYLQMNNLRVEDMGIYYCTHEYYGMDYWGQGTSVTVS chain 2 DVVMTQTPLSLPVSLGDQASISCRSSQSLVHSNGNTYLRWYLQKPGQSPKVLIYKVSNRFSGVPDRFSGSGSGTDFTLKISRVEAEDLGVYFCSQSTHVPWTFGGGTKLEIK [chain 1 G100H S101E] the Kd (fluorescein) was ≥ 10 µM and the yeast surface expression [1] was 0.4.
